Assay results reported in paper PMC4380928.

Assays:
Assay in all cases: peptide microarray probed with GST protein
Conditions in all cases: reference: unphosphorylated Y124 15-mer; sites Y124
[1] = target: PIK3R3 (p55γ) 1-461 (UniProt Q92569)
[2] = target: GRB2 1-217 (UniProt P62993)
[3] = target: GRB2 SH2, 75-160 (UniProt P62993)

Measured: binding against the reference

TSPAN2 (tetraspanin 2) 15-mers, each centred on one tyrosine (from UniProt O60636) pY124 15-mer
gained: all assays above
